# From the supplement of paper PMC11865577
# Test system: G-clamp-N3 (biotin conjugate)
# Assay: pull-down binding Z-score (relative to library population); higher = stronger binding
# Conditions: RNA library: Library-1 (pre-miRNA loops + repeats)
# Procedure, shortened: (§1)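 To score binding, a beads-only signal was subtracted, barcoded replicate probes were averaged with the highest and lowest dropped, and the value was converted to a Z-score using the library mean and standard deviation. The input was 1 μg of Cy5- or Cy3-end-labelled RNA library, heat-folded in phosphate/NaCl/KCl buffer and mixed for 60 min at 25 °C with streptavidin beads carrying 100 pmol of biotin-conjugated small molecule. Bound RNA was eluted in hot SDS and hybridised to a DNA barcode microarray at 55.5 °C for 20 h.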
row,Sequence,pull-down binding Z-score
1,AUAUGAGCUUCAUUUAUACAUUUCAUAU [hsa-mir-556],-0.528
2,AUAUGUGUGUAUAUAUGUACACAUAC [hsa-mir-466],-0.157
3,AUAUUGACACUAUAACAAUAAUGUCAAUAU [hsa-mir-4795],0.669
4,AUCAAAGUGGGGACUCAUGGGGAGAG [hsa-mir-4284],0.195
5,AUCAAGAAAAGAUUUGGUGUUCUUGAU [hsa-mir-4782],1.36
6,AUCACUGAAAUAUGUCUGAGCUUCUGUU [hsa-mir-4501],-0.332
7,AUCAGCAGAGACAUGAGGUGAUCAAAAACCUUUUUUCAAAGCAGUGGG [hsa-mir-4300],-0.911
8,AUCAGGCAGUUUCCUG [hsa-mir-4289],-1.29
9,AUCAGUUCUCAUUUUACACACUGGC [hsa-mir-24-1],0.0425
10,AUCAUAAUAAAGGUGUCAUGAU [hsa-mir-3682],-0.55
11,AUCAUCUCUCCCUUGGAU [hsa-mir-3683],1.39
12,AUCAUGUAUAAUUAAAAAUGAU [hsa-mir-509-2_509-3_509-1],-0.568
13,AUCCAGUCCACUUAAUUCUGAGAAAGUCCACAGACUGGAUCGGGUCUUGGAUUUUAGCUGGAUUCAU [hsa-mir-6082],-0.0473
14,AUCCCUUAGAUGCUAAGAUGGGGAU [hsa-mir-145],1.18
15,AUCGGUCGAGAGCGUCCUGGCUGAU [hsa-mir-3178],0.173
16,AUCUAUUCCAGAAGAU [hsa-mir-4696],1.53
17,AUCUCCUUUAGGAAAACCUUCUGUGGGGAGU [hsa-mir-1296],-0.272
18,AUCUGAAUGAUCUCAGC [hsa-mir-626],-1.32
19,AUCUGAGGUGACUGGCACAGAAGACUCAGG [hsa-mir-6735],-0.394
20,AUCUGAUGUUGAAUACUCUUUAAGU [hsa-mir-1245a],-1.01
21,AUCUGCAGGGCAUUGUGCUAACAGGU [hsa-mir-4681],1.35
22,AUCUUCCUGACCUGGUAAUAAUUAGGUGAGAAGGAU [hsa-mir-8069-2_8069-1],0.78
23,AUGAGAAAUUGGUUUCAA [hsa-mir-8063],1.5
24,AUGAGCUAAAAAUCCCCAAGCUCU [hsa-mir-4769],-0.0764
25,AUGAUAUAUUGUGAGAGCCAUGUCAU [hsa-mir-6718],0.0796

row,Sequence,pull-down binding Z-score
1,AUGAUUUUUGGGGUCA [hsa-mir-4678],1.23
2,AUGCACCCAUAUUUUAAUAUCAAACUAUGACAAAUU [hsa-mir-3974],-0.337
3,AUGCAUGGCUGGUGGCGGCGUGCAG [hsa-mir-6722],0.533
4,AUGCCCCAGGUGACGUGCUGGGCU [hsa-mir-4526],-0.192
5,AUGCCUGAGAAUAUAUGAAGGAGGCU [hsa-mir-204],2.31
6,AUGCUAAGUCCAUGGGCAAACAU [hsa-mir-5704],-0.176
7,AUGGAGAACGCCCCCACCAGUUCCCAC [hsa-mir-6767],-0.992
8,AUGGAGGCUGCUUCUCCUCAGCAGCUGCCAUA [hsa-mir-3651],0.277
9,AUGGAUAUGGGAACUGUGAUGUCCA [hsa-mir-4768],1.17
10,AUGGCAUUUAAGGAUUGCUAU [hsa-mir-4477a],0.671
11,AUGGGAGCCCAGAGACGUCCUAU [hsa-mir-8074],0.253
12,AUGGGGCAGCUGGGAUGGUCCAAAAGGGUGGCCUCA [hsa-mir-1226],1.14
13,AUGGUCUCUAUAUUUAUGAUGAUUAA [hsa-mir-889],-0.798
14,AUGGUGUUUGUGAGUUGAUUGACAUCGU [hsa-mir-6506],-0.212
15,AUGGUUAAUGUUCCACAGCCA [hsa-mir-5190],-0.723
16,AUGGUUCCUAUUCUGAUCAAUAAACAUGGUUUGAGCCUAGUUACAAUGAUCUAAAAUUCACGGUCCAA [hsa-mir-548o],-1.15
17,AUGGUUUAGAGUUACACCCUGGGAGUUAACUGU [hsa-let-7c],-0.228
18,AUGUCCCUUUAGUUCAAAGU [hsa-mir-2052],-2.06
19,AUGUCUCAGGUCCCCAGCUGAGUCAA [hsa-mir-6513],-1.3
20,AUGUCUGCUGGGGAACCGGGGCU [hsa-mir-4518],1.1
21,AUGUGAUGUCACUGAGGAAAUCACAC [hsa-mir-216b],0.862
22,AUGUGAUGUGAGCAGAUGGUUCUCACU [hsa-mir-6758],-0.46
23,AUGUGAUUGCUGUCCCAAACUCAUGU [hsa-mir-135b],-0.794
24,AUGUGUUGUGAUGGCACAGCGU [hsa-mir-592],-0.64
25,AUGUUCACUUGAUUAAUGGCGAAUAU [hsa-mir-1185-2_1185-1],0.337

row,Sequence,pull-down binding Z-score
1,AUGUUCGCUUCAUUCAUCAUGAAUAA [hsa-mir-655],-0.248
2,AUGUUUAUUGUAAAGAUACUUU [hsa-mir-1305],-0.249
3,AUUACUUGUGUUCUAUAUAAAGUAUU [hsa-mir-92a-2],-0.855
4,AUUAGACAGAAAAAAGUUAGACACAAAAAAUUGUGUCUAAU [hsa-mir-4759],-0.0386
5,AUUAUGUUUUGGACAUAGAAACAUAAC [hsa-mir-5688],-0.841
6,AUUCAGACUCAGGU [hsa-mir-921],-0.651
7,AUUCUGAUGAUCACCUAGCCAGAAU [hsa-mir-5583-2],-0.301
8,AUUCUGGACACCAG [hsa-mir-147b],-0.497
9,AUUCUGGAGUCCAUCUAGAG [hsa-mir-1182],-1.08
10,AUUCUGGCUAGGUGAUCAUCAGAAU [hsa-mir-5583-1],0.902
11,AUUGAGAGUUCCUUCUCCUGCUCCUGAU [hsa-mir-6766],-0.32
12,AUUGAGUUACCUUUCUGACUUUCCCACU [hsa-mir-28],-0.594
13,AUUGCACGUGUGUGAGGCGGGUGCAGU [hsa-mir-33b],0.513
14,AUUGCAUGUUCUGGUGGUACCCAUGCAAU [hsa-mir-33a],-0.215
15,AUUGCUGGACGCUGCCCUGGGCAU [hsa-mir-25],-0.192
16,AUUGGAUGGAGUCAGGUCUCUAAU [hsa-mir-200b],0.359
17,AUUGGCUUGGAUUCUGCAAAGCCU [hsa-mir-7151],0.697
18,AUUGUACUGUGGUGGUUACAAU [hsa-mir-34b],0.118
19,AUUGUUGCCUCUGCAUGUUACAAU [hsa-mir-8066],0.523
20,AUUGUUGUGGGGUAGGGAUAUUAGGCCCCAAUUAGAAGAUAACUAU [hsa-mir-98],1.37
21,AUUUAUGUGAACUAAAAUAUAAAU [hsa-mir-513b],-0.828
22,AUUUCCCAAAGUUGGGAAAA [hsa-mir-320b-2],-1.23
23,AUUUCUGUAGCUCUGAGACUAGACCU [hsa-mir-544b],-0.0868
24,AUUUCUGUGUUCGUUAGGCAACAG [hsa-mir-221],0.12

# Test system: TO-3-N3 (biotin conjugate)
# Assay: as above
# Conditions: RNA library: Library-2
# Procedure, shortened: as §1
row,Sequence,pull-down binding Z-score
1,AUAUGAGCUUCAUUUAUACAUUUCAUAU [hsa-mir-556],-0.0401
2,AUAUGUGUGUAUAUAUGUACACAUAC [hsa-mir-466],-0.227
3,AUAUUGACACUAUAACAAUAAUGUCAAUAU [hsa-mir-4795],-0.438
4,AUCAAAGUGGGGACUCAUGGGGAGAG [hsa-mir-4284],3.11
5,AUCAAGAAAAGAUUUGGUGUUCUUGAU [hsa-mir-4782],-0.152
6,AUCACUGAAAUAUGUCUGAGCUUCUGUU [hsa-mir-4501],-0.584
7,AUCAGCAGAGACAUGAGGUGAUCAAAAACCUUUUUUCAAAGCAGUGGG [hsa-mir-4300],0.48
8,AUCAGGCAGUUUCCUG [hsa-mir-4289],-0.305
9,AUCAGUUCUCAUUUUACACACUGGC [hsa-mir-24-1],-0.563
10,AUCAUAAUAAAGGUGUCAUGAU [hsa-mir-3682],-0.489
11,AUCAUCUCUCCCUUGGAU [hsa-mir-3683],-0.626
12,AUCAUGUAUAAUUAAAAAUGAU [hsa-mir-509-2_509-3_509-1],-0.267
13,AUCCAGUCCACUUAAUUCUGAGAAAGUCCACAGACUGGAUCGGGUCUUGGAUUUUAGCUGGAUUCAU [hsa-mir-6082],-0.796
14,AUCCCUUAGAUGCUAAGAUGGGGAU [hsa-mir-145],-0.278
15,AUCGGUCGAGAGCGUCCUGGCUGAU [hsa-mir-3178],0.18
16,AUCUAUUCCAGAAGAU [hsa-mir-4696],-0.911
17,AUCUCCUUUAGGAAAACCUUCUGUGGGGAGU [hsa-mir-1296],-0.0517
18,AUCUGAAUGAUCUCAGC [hsa-mir-626],0.58
